Reference: patent publication US20210171647A1 (WUXI BIOLOGICS SHANGHAI, published 2021)

Legend:
Experiment in all cases: ELISA, antibody coated, OX40-ECD.His mutant supernatant; relative to silent alanine substitutions;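 note: captured OX40 mutant protein detected with HRP-labelled anti-His antibody, absorbance read-out, scaled to the mean signal of control mutants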
human OX40-ECD.His P121A = target: T1, human OX40-ECD.His P121A (human, UniProt P43489 29-214)
T1 construct: extracellular domain; not shown: C-terminal His-tag
T1 sequence (looked up): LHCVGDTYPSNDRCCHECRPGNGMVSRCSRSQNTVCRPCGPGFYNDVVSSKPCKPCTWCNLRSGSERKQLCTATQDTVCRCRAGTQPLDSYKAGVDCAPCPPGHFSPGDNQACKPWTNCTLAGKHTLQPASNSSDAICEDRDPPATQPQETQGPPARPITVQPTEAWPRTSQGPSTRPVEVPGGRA

human OX40-ECD.His Q114A = target: T2, human OX40-ECD.His Q114A (human, UniProt P43489 29-214)
T2 construct: extracellular domain; not shown: C-terminal His-tag
T2 sequence (looked up): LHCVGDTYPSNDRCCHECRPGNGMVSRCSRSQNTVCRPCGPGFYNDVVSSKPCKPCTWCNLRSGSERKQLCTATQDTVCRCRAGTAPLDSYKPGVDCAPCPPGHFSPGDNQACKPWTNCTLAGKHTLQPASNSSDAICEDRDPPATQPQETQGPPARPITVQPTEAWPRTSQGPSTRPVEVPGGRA

human OX40-ECD.His A164G = target: T3, human OX40-ECD.His A164G (human, UniProt P43489 29-214)
T3 construct: extracellular domain; not shown: C-terminal His-tag
T3 sequence (looked up): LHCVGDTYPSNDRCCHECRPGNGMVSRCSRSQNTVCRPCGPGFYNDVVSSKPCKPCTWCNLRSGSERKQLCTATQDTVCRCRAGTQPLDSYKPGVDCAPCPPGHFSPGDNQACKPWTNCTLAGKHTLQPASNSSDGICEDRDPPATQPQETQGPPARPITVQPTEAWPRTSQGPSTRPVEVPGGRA

human OX40-ECD.His V75A = target: T4, human OX40-ECD.His V75A (human, UniProt P43489 29-214)
T4 construct: extracellular domain; not shown: C-terminal His-tag
T4 sequence (looked up): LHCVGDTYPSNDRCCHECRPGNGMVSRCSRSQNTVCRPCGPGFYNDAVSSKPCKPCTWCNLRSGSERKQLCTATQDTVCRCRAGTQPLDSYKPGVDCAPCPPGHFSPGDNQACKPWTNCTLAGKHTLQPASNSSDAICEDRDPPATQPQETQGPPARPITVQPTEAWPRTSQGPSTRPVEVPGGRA

human OX40-ECD.His R108A = target: T5, human OX40-ECD.His R108A (human, UniProt P43489 29-214)
T5 construct: extracellular domain; not shown: C-terminal His-tag
T5 sequence (looked up): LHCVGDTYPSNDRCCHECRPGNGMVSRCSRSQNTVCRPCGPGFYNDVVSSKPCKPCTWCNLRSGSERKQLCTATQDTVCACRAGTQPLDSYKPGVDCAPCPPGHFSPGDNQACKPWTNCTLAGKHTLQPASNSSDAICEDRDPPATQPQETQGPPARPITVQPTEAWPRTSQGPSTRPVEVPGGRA

human OX40-ECD.His A126G = target: T6, human OX40-ECD.His A126G (human, UniProt P43489 29-214)
T6 construct: extracellular domain; not shown: C-terminal His-tag
T6 sequence (looked up): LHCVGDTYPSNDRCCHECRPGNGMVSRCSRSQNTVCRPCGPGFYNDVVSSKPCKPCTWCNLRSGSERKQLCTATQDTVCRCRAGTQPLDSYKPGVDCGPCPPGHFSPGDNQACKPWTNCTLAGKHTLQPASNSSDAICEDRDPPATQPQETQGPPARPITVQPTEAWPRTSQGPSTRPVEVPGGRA

human OX40-ECD.His K82A = target: T7, human OX40-ECD.His K82A (human, UniProt P43489 29-214)
T7 construct: extracellular domain; not shown: C-terminal His-tag
T7 sequence (looked up): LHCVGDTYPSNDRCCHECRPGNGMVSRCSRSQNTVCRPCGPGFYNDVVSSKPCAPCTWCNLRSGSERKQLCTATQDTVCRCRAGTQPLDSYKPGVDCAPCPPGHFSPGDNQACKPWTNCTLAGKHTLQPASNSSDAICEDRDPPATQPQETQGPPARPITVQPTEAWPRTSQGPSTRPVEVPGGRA

human OX40-ECD.His T35A = target: T8, human OX40-ECD.His T35A (human, UniProt P43489 29-214)
T8 construct: extracellular domain; not shown: C-terminal His-tag
T8 sequence (looked up): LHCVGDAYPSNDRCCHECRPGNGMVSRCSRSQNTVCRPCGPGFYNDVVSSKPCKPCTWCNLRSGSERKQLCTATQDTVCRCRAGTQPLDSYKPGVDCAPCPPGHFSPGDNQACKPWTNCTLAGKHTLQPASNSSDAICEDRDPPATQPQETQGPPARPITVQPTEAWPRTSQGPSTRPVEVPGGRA

human OX40-ECD.His Q97A = target: T9, human OX40-ECD.His Q97A (human, UniProt P43489 29-214)
T9 construct: extracellular domain; not shown: C-terminal His-tag
T9 sequence (looked up): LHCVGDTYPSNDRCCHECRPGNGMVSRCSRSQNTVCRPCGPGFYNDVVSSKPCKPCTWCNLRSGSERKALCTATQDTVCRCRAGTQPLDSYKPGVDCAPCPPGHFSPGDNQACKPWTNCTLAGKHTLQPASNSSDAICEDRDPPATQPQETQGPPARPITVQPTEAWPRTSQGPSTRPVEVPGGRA

human OX40-ECD.His G151A = target: T10, human OX40-ECD.His G151A (human, UniProt P43489 29-214)
T10 construct: extracellular domain; not shown: C-terminal His-tag
T10 sequence (looked up): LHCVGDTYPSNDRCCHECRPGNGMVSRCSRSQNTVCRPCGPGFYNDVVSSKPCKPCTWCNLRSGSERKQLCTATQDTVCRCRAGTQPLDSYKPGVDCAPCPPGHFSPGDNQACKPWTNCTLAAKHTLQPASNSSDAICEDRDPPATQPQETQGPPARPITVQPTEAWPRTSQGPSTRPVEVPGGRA

B1: 1.134.9-u1-IgG1L (antibody, V domains shown)
VH: QVQLQESGPGLVKPSGTLSLTCAVSGGSISSYNWWSWVRQPPGKGLEWIGEIYHGGNTNYNPSLKSRVTMSVDNSKNQFSLKLSSVTAADTAVYYCARAPGDWGGSPYFDFWGQGTLVTVSS
VL: SSELTQDPAVSVALGQTVRITCQGDNLRTYYASWYQQKPGQAPILLIYGRNKRPSGIPDRFSGSSSGNTASLTITGAQAEDEAAYYCNSRDSSGNPVVFGGGTKLTVL
notes: fully human IgG1, lambda
- Fold Change (human OX40-ECD.His P121A): 0.974
- Fold Change (human OX40-ECD.His Q114A): 0.79
- Fold Change (human OX40-ECD.His A164G): 0.47
- Fold Change (human OX40-ECD.His V75A): 0.994
- Fold Change (human OX40-ECD.His R108A): 0.981
- Fold Change (human OX40-ECD.His A126G): 0.954
- Fold Change (human OX40-ECD.His K82A): 0.894
- Fold Change (human OX40-ECD.His T35A): 1.02
- Fold Change (human OX40-ECD.His Q97A): 0.981
- Fold Change (human OX40-ECD.His G151A): 0.742
